Results as given in IntAct's records for PubMed 36931259.

B1: 14-3-3 protein sigma (Homo sapiens), P31947 (parent)
chain: MERASLIQKAKLAEQAERYEDMAAFMKGAVEKGEELSCEERNLLSVAYKNVVGGQRAAWRVLSSIEQKSNEEGSEEKGPEVREYREKVETELQGVCDTVLGLLDSHLIKEAGDAESRVFYLKMKGDYYRYLAEVATGDDKKRIIDSARSAYQEAMDISKKEMPPTNPIRLGLALNFSVFHYEIANSPEEAISLAKTTFDEAMADLHTLSEDSYKDSTLIMQLLRDNLTLWTADNAGEEGGEAPQEPQS

Variants of: B1
Settings: with MAP3K14, Q99558

| effect of a mutation on the interaction | Variant |
| --- | --- |
| decreasing interaction strength | MERASLIQKAKLAEQAERYEDMAAFMKGAVEKGEELSCEERNLLSVAYENVVGGQEAAWRVLSSIEQKSNEEGSEEKGPEVREYREKVETELQGVCDTVLGLLDSHLIKEAGDAESRVFYLKMKGDYYRYLAEVATGDDKKRIIDSARSAYQEAMDISKKEMPPTNPIRLGLALNFSDFHYEIANSPEEAISLAKTTFDEAMADLHTLSEDSYKDSTLIMQLLRDNLTLWTADNAGEEGGEAPQEPQS [K49E;R56E;V178D] |

Variants of: B1
Settings: with limk2_human LIMK2, P53671

| effect of a mutation on the interaction | Variant |
| --- | --- |
| decreasing interaction strength | MERASLIQKAKLAEQAERYEDMAAFMKGAVEKGEELSCEERNLLSVAYENVVGGQEAAWRVLSSIEQKSNEEGSEEKGPEVREYREKVETELQGVCDTVLGLLDSHLIKEAGDAESRVFYLKMKGDYYRYLAEVATGDDKKRIIDSARSAYQEAMDISKKEMPPTNPIRLGLALNFSDFHYEIANSPEEAISLAKTTFDEAMADLHTLSEDSYKDSTLIMQLLRDNLTLWTADNAGEEGGEAPQEPQS [K49E;R56E;V178D] |

Variants of: B1
Settings: with m3k9_human MAP3K9, P80192
Sequence of m3k9_human MAP3K9, P80192 (P80192 whole entry, looked up): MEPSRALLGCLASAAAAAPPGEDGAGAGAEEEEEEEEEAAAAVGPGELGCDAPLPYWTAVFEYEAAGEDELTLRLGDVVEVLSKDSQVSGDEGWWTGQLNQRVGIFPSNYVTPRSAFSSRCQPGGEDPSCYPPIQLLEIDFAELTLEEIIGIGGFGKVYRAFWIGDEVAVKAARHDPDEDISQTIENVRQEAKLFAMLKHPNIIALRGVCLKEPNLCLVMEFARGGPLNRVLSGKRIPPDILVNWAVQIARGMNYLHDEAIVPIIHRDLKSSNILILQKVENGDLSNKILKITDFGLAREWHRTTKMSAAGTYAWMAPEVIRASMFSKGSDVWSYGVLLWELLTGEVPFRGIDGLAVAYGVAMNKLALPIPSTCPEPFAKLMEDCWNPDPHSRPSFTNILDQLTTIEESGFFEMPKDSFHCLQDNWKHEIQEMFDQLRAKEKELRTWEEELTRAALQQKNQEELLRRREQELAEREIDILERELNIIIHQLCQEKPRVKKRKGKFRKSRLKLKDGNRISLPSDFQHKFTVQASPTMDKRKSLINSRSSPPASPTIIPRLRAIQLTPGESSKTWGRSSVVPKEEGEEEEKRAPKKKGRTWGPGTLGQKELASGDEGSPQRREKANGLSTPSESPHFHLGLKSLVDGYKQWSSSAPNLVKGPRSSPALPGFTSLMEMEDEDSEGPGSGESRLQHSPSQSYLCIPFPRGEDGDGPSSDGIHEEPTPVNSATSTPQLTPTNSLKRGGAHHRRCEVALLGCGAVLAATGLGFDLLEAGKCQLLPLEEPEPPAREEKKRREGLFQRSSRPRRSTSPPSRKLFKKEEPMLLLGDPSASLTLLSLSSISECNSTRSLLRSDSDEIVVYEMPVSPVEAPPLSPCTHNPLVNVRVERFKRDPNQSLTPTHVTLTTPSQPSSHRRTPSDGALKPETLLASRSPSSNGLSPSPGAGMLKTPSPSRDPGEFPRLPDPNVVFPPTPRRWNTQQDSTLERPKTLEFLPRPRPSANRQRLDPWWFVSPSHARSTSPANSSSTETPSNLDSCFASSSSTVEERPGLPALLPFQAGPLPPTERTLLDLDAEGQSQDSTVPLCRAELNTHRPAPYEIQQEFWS

| effect of a mutation on the interaction | Variant |
| --- | --- |
| decreasing interaction strength | MERASLIQKAKLAEQAERYEDMAAFMKGAVEKGEELSCEERNLLSVAYENVVGGQEAAWRVLSSIEQKSNEEGSEEKGPEVREYREKVETELQGVCDTVLGLLDSHLIKEAGDAESRVFYLKMKGDYYRYLAEVATGDDKKRIIDSARSAYQEAMDISKKEMPPTNPIRLGLALNFSDFHYEIANSPEEAISLAKTTFDEAMADLHTLSEDSYKDSTLIMQLLRDNLTLWTADNAGEEGGEAPQEPQS [K49E;R56E;V178D] |

Variants of: B1
Settings: with tesk2_human TESK2, Q96S53
Sequence of tesk2_human TESK2, Q96S53 (Q96S53 whole entry, looked up): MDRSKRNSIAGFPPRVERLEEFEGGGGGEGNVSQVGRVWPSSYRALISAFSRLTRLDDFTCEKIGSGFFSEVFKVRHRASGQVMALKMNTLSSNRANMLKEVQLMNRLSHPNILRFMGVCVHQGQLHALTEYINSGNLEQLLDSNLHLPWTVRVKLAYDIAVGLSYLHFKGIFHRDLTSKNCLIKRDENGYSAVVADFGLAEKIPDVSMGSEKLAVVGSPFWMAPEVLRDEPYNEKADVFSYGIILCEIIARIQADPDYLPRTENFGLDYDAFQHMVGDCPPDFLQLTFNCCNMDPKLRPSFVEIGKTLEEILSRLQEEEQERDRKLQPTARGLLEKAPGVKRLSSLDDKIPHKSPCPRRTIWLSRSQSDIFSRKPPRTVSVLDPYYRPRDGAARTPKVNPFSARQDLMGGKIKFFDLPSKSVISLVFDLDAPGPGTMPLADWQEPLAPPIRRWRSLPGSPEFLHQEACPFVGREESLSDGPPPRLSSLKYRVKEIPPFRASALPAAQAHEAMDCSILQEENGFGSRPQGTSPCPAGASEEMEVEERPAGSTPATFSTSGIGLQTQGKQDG

| effect of a mutation on the interaction | Variant |
| --- | --- |
| decreasing interaction strength | MERASLIQKAKLAEQAERYEDMAAFMKGAVEKGEELSCEERNLLSVAYENVVGGQEAAWRVLSSIEQKSNEEGSEEKGPEVREYREKVETELQGVCDTVLGLLDSHLIKEAGDAESRVFYLKMKGDYYRYLAEVATGDDKKRIIDSARSAYQEAMDISKKEMPPTNPIRLGLALNFSDFHYEIANSPEEAISLAKTTFDEAMADLHTLSEDSYKDSTLIMQLLRDNLTLWTADNAGEEGGEAPQEPQS [K49E;R56E;V178D] |

Variants of: B1
Settings: with mk04_human MAPK4, P31152
Sequence of mk04_human MAPK4, P31152 (P31152 whole entry): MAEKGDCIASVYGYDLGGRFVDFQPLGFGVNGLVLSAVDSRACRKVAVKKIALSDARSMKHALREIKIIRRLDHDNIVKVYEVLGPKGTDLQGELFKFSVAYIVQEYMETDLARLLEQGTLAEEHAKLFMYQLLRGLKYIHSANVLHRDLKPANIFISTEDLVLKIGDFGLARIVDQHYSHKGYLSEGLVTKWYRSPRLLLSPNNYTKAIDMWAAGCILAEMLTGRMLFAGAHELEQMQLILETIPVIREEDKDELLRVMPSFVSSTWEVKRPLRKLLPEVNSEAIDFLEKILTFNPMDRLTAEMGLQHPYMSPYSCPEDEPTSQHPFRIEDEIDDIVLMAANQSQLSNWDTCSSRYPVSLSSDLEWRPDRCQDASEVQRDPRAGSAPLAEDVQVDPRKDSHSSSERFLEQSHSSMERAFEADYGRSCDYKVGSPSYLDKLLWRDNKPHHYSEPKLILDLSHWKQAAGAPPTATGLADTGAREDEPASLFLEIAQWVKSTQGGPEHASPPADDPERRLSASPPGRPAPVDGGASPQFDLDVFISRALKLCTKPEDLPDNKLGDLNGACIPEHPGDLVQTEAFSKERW

| effect of a mutation on the interaction | Variant |
| --- | --- |
| decreasing interaction strength | MERASLIQKAKLAEQAERYEDMAAFMKGAVEKGEELSCEERNLLSVAYENVVGGQEAAWRVLSSIEQKSNEEGSEEKGPEVREYREKVETELQGVCDTVLGLLDSHLIKEAGDAESRVFYLKMKGDYYRYLAEVATGDDKKRIIDSARSAYQEAMDISKKEMPPTNPIRLGLALNFSDFHYEIANSPEEAISLAKTTFDEAMADLHTLSEDSYKDSTLIMQLLRDNLTLWTADNAGEEGGEAPQEPQS [K49E;R56E;V178D] |

Variants of: B1
Settings: with wnk1_human WNK1, Q9H4A3

| effect of a mutation on the interaction | Variant |
| --- | --- |
| decreasing interaction strength | MERASLIQKAKLAEQAERYEDMAAFMKGAVEKGEELSCEERNLLSVAYENVVGGQEAAWRVLSSIEQKSNEEGSEEKGPEVREYREKVETELQGVCDTVLGLLDSHLIKEAGDAESRVFYLKMKGDYYRYLAEVATGDDKKRIIDSARSAYQEAMDISKKEMPPTNPIRLGLALNFSDFHYEIANSPEEAISLAKTTFDEAMADLHTLSEDSYKDSTLIMQLLRDNLTLWTADNAGEEGGEAPQEPQS [K49E;R56E;V178D] |

Variants of: B1
Settings: with abl1_human ABL1, P00519
Sequence of abl1_human ABL1, P00519 (P00519 whole entry): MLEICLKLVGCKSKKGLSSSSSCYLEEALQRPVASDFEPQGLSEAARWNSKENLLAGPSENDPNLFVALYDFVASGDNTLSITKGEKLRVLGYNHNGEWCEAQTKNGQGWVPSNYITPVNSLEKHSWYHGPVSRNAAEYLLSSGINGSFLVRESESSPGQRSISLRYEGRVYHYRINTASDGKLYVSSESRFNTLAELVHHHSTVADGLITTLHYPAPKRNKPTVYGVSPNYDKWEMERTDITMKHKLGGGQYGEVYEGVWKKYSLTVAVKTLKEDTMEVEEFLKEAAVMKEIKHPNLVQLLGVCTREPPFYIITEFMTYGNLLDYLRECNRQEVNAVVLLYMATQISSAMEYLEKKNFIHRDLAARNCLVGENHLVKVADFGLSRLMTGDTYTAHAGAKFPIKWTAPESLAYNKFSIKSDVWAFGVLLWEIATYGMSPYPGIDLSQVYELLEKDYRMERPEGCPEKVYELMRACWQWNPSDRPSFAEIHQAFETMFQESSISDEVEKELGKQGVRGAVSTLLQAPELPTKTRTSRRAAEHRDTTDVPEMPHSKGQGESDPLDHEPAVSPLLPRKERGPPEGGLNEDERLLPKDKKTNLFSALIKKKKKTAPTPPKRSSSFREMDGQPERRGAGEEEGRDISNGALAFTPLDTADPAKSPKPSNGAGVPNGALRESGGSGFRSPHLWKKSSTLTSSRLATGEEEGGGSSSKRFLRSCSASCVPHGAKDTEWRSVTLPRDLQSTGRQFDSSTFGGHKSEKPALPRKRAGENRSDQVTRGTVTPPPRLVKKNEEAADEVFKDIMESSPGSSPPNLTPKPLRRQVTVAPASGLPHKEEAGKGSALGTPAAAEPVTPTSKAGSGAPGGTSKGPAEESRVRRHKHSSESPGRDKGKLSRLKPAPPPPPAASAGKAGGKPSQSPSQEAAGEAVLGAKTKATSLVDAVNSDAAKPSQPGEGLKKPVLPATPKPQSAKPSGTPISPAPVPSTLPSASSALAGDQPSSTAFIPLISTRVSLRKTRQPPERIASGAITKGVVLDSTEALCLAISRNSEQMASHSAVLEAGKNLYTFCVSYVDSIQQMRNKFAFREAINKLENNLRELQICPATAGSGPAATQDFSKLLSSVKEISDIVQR

| effect of a mutation on the interaction | Variant |
| --- | --- |
| decreasing interaction strength | MERASLIQKAKLAEQAERYEDMAAFMKGAVEKGEELSCEERNLLSVAYENVVGGQEAAWRVLSSIEQKSNEEGSEEKGPEVREYREKVETELQGVCDTVLGLLDSHLIKEAGDAESRVFYLKMKGDYYRYLAEVATGDDKKRIIDSARSAYQEAMDISKKEMPPTNPIRLGLALNFSDFHYEIANSPEEAISLAKTTFDEAMADLHTLSEDSYKDSTLIMQLLRDNLTLWTADNAGEEGGEAPQEPQS [K49E;R56E;V178D] |

Variants of: B1
Settings: with mast2_human MAST2, Q6P0Q8

| effect of a mutation on the interaction | Variant |
| --- | --- |
| decreasing interaction strength | MERASLIQKAKLAEQAERYEDMAAFMKGAVEKGEELSCEERNLLSVAYENVVGGQEAAWRVLSSIEQKSNEEGSEEKGPEVREYREKVETELQGVCDTVLGLLDSHLIKEAGDAESRVFYLKMKGDYYRYLAEVATGDDKKRIIDSARSAYQEAMDISKKEMPPTNPIRLGLALNFSDFHYEIANSPEEAISLAKTTFDEAMADLHTLSEDSYKDSTLIMQLLRDNLTLWTADNAGEEGGEAPQEPQS [K49E;R56E;V178D] |

Variants of: B1
Settings: with dyr1b_human DYRK1B

| effect of a mutation on the interaction | Variant |
| --- | --- |
| decreasing interaction strength | MERASLIQKAKLAEQAERYEDMAAFMKGAVEKGEELSCEERNLLSVAYENVVGGQEAAWRVLSSIEQKSNEEGSEEKGPEVREYREKVETELQGVCDTVLGLLDSHLIKEAGDAESRVFYLKMKGDYYRYLAEVATGDDKKRIIDSARSAYQEAMDISKKEMPPTNPIRLGLALNFSDFHYEIANSPEEAISLAKTTFDEAMADLHTLSEDSYKDSTLIMQLLRDNLTLWTADNAGEEGGEAPQEPQS [K49E;R56E;V178D] |

Variants of: B1
Settings: with wnk4_human WNK4, Q96J92

| effect of a mutation on the interaction | Variant |
| --- | --- |
| decreasing interaction strength | MERASLIQKAKLAEQAERYEDMAAFMKGAVEKGEELSCEERNLLSVAYENVVGGQEAAWRVLSSIEQKSNEEGSEEKGPEVREYREKVETELQGVCDTVLGLLDSHLIKEAGDAESRVFYLKMKGDYYRYLAEVATGDDKKRIIDSARSAYQEAMDISKKEMPPTNPIRLGLALNFSDFHYEIANSPEEAISLAKTTFDEAMADLHTLSEDSYKDSTLIMQLLRDNLTLWTADNAGEEGGEAPQEPQS [K49E;R56E;V178D] |

Variants of: B1
Settings: with clk3_human CLK3, P49761
Sequence of clk3_human CLK3, P49761 (P49761 whole entry, looked up): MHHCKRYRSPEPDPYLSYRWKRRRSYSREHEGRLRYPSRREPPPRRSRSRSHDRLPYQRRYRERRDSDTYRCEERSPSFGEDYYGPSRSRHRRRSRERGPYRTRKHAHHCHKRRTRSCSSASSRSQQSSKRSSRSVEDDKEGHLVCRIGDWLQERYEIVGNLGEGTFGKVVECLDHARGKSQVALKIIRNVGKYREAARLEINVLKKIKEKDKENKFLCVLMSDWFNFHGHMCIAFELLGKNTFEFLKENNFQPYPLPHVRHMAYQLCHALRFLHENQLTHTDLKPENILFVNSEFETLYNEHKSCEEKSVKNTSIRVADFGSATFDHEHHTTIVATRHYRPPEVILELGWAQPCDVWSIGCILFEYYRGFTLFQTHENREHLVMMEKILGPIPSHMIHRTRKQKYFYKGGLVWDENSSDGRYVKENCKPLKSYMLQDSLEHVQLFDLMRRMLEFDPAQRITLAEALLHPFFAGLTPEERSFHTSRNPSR

| effect of a mutation on the interaction | Variant |
| --- | --- |
| decreasing interaction strength | MERASLIQKAKLAEQAERYEDMAAFMKGAVEKGEELSCEERNLLSVAYENVVGGQEAAWRVLSSIEQKSNEEGSEEKGPEVREYREKVETELQGVCDTVLGLLDSHLIKEAGDAESRVFYLKMKGDYYRYLAEVATGDDKKRIIDSARSAYQEAMDISKKEMPPTNPIRLGLALNFSDFHYEIANSPEEAISLAKTTFDEAMADLHTLSEDSYKDSTLIMQLLRDNLTLWTADNAGEEGGEAPQEPQS [K49E;R56E;V178D] |

Variants of: B1
Settings: with cdk18_human CDK18, Q07002
Sequence of cdk18_human CDK18, Q07002 (Q07002 whole entry): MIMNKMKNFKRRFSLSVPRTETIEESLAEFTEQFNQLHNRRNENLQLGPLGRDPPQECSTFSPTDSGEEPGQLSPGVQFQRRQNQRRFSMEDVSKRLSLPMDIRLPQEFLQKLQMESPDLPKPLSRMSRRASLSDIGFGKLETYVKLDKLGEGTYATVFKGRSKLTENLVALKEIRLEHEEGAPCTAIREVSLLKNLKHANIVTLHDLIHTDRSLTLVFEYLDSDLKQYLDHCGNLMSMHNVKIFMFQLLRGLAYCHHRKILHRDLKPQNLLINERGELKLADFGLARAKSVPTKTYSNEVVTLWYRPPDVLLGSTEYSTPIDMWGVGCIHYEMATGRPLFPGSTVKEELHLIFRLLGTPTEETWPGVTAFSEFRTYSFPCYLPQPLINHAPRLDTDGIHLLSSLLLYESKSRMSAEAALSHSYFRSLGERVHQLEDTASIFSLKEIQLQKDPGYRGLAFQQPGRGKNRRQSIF

| effect of a mutation on the interaction | Variant |
| --- | --- |
| decreasing interaction strength | MERASLIQKAKLAEQAERYEDMAAFMKGAVEKGEELSCEERNLLSVAYENVVGGQEAAWRVLSSIEQKSNEEGSEEKGPEVREYREKVETELQGVCDTVLGLLDSHLIKEAGDAESRVFYLKMKGDYYRYLAEVATGDDKKRIIDSARSAYQEAMDISKKEMPPTNPIRLGLALNFSDFHYEIANSPEEAISLAKTTFDEAMADLHTLSEDSYKDSTLIMQLLRDNLTLWTADNAGEEGGEAPQEPQS [K49E;R56E;V178D] |

Variants of: B1
Settings: with lck_human LCK

| effect of a mutation on the interaction | Variant |
| --- | --- |
| decreasing interaction strength | MERASLIQKAKLAEQAERYEDMAAFMKGAVEKGEELSCEERNLLSVAYENVVGGQEAAWRVLSSIEQKSNEEGSEEKGPEVREYREKVETELQGVCDTVLGLLDSHLIKEAGDAESRVFYLKMKGDYYRYLAEVATGDDKKRIIDSARSAYQEAMDISKKEMPPTNPIRLGLALNFSDFHYEIANSPEEAISLAKTTFDEAMADLHTLSEDSYKDSTLIMQLLRDNLTLWTADNAGEEGGEAPQEPQS [K49E;R56E;V178D] |

Variants of: B1
Settings: with ntrk3_human NTRK3, Q16288

| effect of a mutation on the interaction | Variant |
| --- | --- |
| decreasing interaction strength | MERASLIQKAKLAEQAERYEDMAAFMKGAVEKGEELSCEERNLLSVAYENVVGGQEAAWRVLSSIEQKSNEEGSEEKGPEVREYREKVETELQGVCDTVLGLLDSHLIKEAGDAESRVFYLKMKGDYYRYLAEVATGDDKKRIIDSARSAYQEAMDISKKEMPPTNPIRLGLALNFSDFHYEIANSPEEAISLAKTTFDEAMADLHTLSEDSYKDSTLIMQLLRDNLTLWTADNAGEEGGEAPQEPQS [K49E;R56E;V178D] |

Variants of: B1
Settings: with mp2k7_human MAP2K7, O14733
Sequence of mp2k7_human MAP2K7, O14733 (O14733 whole entry): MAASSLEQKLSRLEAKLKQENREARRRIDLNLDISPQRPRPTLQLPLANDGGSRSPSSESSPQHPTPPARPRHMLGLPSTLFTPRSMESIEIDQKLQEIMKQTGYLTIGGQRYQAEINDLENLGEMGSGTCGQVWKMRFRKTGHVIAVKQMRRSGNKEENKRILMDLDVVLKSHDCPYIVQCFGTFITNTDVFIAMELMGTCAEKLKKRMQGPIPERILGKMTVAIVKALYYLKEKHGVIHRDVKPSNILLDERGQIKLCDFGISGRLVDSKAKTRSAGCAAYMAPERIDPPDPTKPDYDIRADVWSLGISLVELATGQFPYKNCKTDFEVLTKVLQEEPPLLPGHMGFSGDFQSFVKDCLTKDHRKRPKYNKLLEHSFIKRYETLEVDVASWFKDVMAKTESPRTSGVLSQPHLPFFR

| effect of a mutation on the interaction | Variant |
| --- | --- |
| decreasing interaction strength | MERASLIQKAKLAEQAERYEDMAAFMKGAVEKGEELSCEERNLLSVAYENVVGGQEAAWRVLSSIEQKSNEEGSEEKGPEVREYREKVETELQGVCDTVLGLLDSHLIKEAGDAESRVFYLKMKGDYYRYLAEVATGDDKKRIIDSARSAYQEAMDISKKEMPPTNPIRLGLALNFSDFHYEIANSPEEAISLAKTTFDEAMADLHTLSEDSYKDSTLIMQLLRDNLTLWTADNAGEEGGEAPQEPQS [K49E;R56E;V178D] |
